The record followed here is publication PMC3568192 (Journal of molecular biology, 2012).

The target in data set [1] is T1, FBF-2 (164-575) (C. elegans, UniProt Q09312 164-575).
T1 sequence (looked up): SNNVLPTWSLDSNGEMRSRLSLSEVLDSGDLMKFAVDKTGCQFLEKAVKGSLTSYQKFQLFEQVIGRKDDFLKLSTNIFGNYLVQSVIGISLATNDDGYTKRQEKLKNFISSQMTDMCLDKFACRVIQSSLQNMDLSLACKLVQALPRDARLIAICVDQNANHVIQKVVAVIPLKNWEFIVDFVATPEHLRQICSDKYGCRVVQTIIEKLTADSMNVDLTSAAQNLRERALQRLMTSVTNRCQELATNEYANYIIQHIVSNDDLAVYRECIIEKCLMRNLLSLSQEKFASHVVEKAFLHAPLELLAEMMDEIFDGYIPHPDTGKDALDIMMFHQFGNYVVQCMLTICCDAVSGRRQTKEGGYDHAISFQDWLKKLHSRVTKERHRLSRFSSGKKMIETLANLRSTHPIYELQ
Briefly: fluorescence polarisation. In general terms: In fluorescence polarisation assays a small probe gives low polarisation when free and higher when bound to something large.

In data set [2] the target is fluorescently labeled wild-type CPB-1(19-80) (C. elegans) (UniProt Q03571). Put plainly: fluorescence polarisation.
In data set [3] the target is T2, FBF-2 (164-575) (Caenorhabditis elegans, UniProt Q09312 164-575).
T2 sequence: T1 sequence (looked up)
Put plainly: EMSA.

For data set [4], the target named is T3, FBF-2 (164-575);MBP-CPB-1 (1-80) (Caenorhabditis elegans;Caenorhabditis …, UniProt Q09312;Q03571 164-575;1-80, |).
T3 sequence 1: T1 sequence (looked up)
T3 sequence 2: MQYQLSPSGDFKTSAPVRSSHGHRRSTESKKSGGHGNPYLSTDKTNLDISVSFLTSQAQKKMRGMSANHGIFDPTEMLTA
Put plainly: EMSA. In general terms: In EMSA bound probe runs differently from free probe, usually more slowly.

Data set [5] deals with T4, FBF-1 (164-566) (C. elegans, UniProt Q9N5M6 164-566).
T4 sequence (looked up): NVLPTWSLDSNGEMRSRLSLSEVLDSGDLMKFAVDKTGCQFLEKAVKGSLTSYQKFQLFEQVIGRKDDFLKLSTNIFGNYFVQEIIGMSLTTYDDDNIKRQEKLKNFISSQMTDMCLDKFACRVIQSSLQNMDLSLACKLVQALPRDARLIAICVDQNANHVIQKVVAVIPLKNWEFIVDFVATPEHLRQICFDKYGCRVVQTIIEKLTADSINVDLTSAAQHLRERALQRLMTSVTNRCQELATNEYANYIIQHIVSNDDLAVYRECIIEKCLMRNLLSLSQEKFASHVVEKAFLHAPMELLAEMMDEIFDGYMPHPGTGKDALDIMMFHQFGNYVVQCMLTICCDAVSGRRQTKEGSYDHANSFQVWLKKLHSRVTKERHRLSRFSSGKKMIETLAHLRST
Put plainly: cross-linking.

In data set [6] the target is T5, FBF-2 (164-566) (C. elegans, UniProt Q09312 164-566).
T5 sequence (looked up): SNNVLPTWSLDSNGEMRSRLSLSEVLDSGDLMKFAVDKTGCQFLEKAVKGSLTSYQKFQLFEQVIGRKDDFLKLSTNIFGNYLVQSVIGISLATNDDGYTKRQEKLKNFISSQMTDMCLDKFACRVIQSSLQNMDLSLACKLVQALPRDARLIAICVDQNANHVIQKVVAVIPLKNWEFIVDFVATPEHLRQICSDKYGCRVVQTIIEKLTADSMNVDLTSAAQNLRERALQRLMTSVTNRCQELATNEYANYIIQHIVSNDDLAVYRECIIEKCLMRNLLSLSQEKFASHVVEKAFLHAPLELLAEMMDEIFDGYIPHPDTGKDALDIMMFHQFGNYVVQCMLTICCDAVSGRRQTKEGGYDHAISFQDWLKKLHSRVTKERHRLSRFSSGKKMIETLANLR
Put plainly: cross-linking.

Data set [7] has as its target T4, FBF-1 (164-566). Briefly: pull-down.
For data set [8], the target named is T5, FBF-2 (164-566). Briefly: pull-down.
Data set [9] addresses T1, FBF-2 (164-575). Briefly: NMR, [15N,1H]-HSQC free against bound.

Substitutions are numbered along the chain they refer to. Names and notes keep the numbering of the source. Where no end group is shown, it is not given here.

B1: CPB-1(19-80) (domain or fragment, C. elegans, UniProt Q03571 19-80, looked up)
chain: SSHGHRRSTESKKSGGHGNPYLSTDKTNLDISVSFLTSQAQKKMRGMSANHGIFDPTEMLTA
Broadly, the IC50 is the concentration that gives 50% inhibition. The molecule B1 gave an IC50 with FBF-2 (164-575) [1] of 1150 ± 50 nM.

B2: CPB-1(19-80) L47A (domain or fragment, C. elegans, UniProt Q03571 19-80, looked up)
chain: B1 chain with L29A
For B2, the binding result with FBF-2 (164-575) [1] is reported as “binds”.

B3: CPB-1(19-80) K44A (domain or fragment, C. elegans, UniProt Q03571 19-80, looked up)
chain: B1 chain with K26A
B3: the binding result in the data set with FBF-2 (164-575) [1] is reported as “binds”.

B4: CPB-1(19-80) L40A (domain or fragment, C. elegans, UniProt Q03571 19-80, looked up)
chain: B1 chain with L22A
Consider B4, for which, in the data set with FBF-2 (164-575) [1], the binding result is on record as “binds”.

B5: CPB-1(19-80) T45A (domain or fragment, C. elegans, UniProt Q03571 19-80, looked up)
chain: B1 chain with T27A
Turning to B5, the binding result with FBF-2 (164-575) [1] is listed as “binds”.

B6: CPB-1(19-80) I49A (domain or fragment, C. elegans, UniProt Q03571 19-80, looked up)
chain: B1 chain with I31A
Regarding B6, the binding result with FBF-2 (164-575) [1] is “binds”.

B7: FBF-2 (164-575) (domain or fragment)
chain: T1 sequence (looked up)
One may read the Kd as the constant that tells how readily two partners part at equilibrium. Read a high Kd as weaker binding. Turning to B7, the Kd in data set [2] was 49 nM.

B8: FBF-2 (164-575) Y479A (domain or fragment)
chain: T1 sequence (looked up) with Y316A
The molecule B8 displayed a fold increase in Kd relative to wild-type FBF in data set [2] of over 60 fold.

B9: FBF-2 (164-575) T485A (domain or fragment)
chain: T1 sequence (looked up) with T322A
Take B9: the equilibrium dissociation constant (Kd) in data set [2] amounted to 1260 nM.

B10: FBF-2 (164-575) I480A (domain or fragment)
chain: T1 sequence (looked up) with I317A
Turning to B10, the Kd in [2] turned out to be 778 nM. Regarding CGAAAUAAACAUUUUGUACCAUUCAGUC (ssRNA) [cyb-1 RNA], the Kd amounted to 24 nM in the data set with FBF-2 (164-575) [3] and 5.8 nM in data set [4].

B11: CPB-1(1-80) (domain or fragment, C. elegans, UniProt Q03571 1-80, looked up)
chain: T3 sequence 2
The stoichiometry N is a count of units in the complex or per binding partner. B11: the “stoichiometry N” value with FBF-1 (164-566) [5] and with FBF-2 (164-566) [6] was 1 in each case. Consider SGGHGNPYLSTDKTNLDISVSFLTSQAQK (domain or fragment, C. elegans, UniProt Q03571 32-60, looked up) [CPB-1(32-60)], for which the binding result with FBF-1 (164-566) [7] and with FBF-2 (164-566) [8] was “binds” in each case. SGGHGNPYLSTDKTNLDISVSFLTSQAQKKMRGMSANHGIFDPTEMLTA (domain or fragment, C. elegans, UniProt Q03571 32-80, looked up, also: 15N labeled) [15N-labeled CPB-1(32-80)]: the binding result with FBF-2 (164-575) [9] is listed as “binds”.
